{"source": "paper PMC4258549", "about": "(Journal of immunology (Baltimore, Md. : 1950), 2014)", "binders": {"B1": {"name": "Eap23 (Eap fragment of domains 2 and 3) (domain or fragment)", "chain": "ANVQVPYTITVNGTSQNILSNLTFNKNQNISYKDLEGKVKSVLESNRGITDVDLRLSKQAKYTVNFKNGTKKVIDLKSGIYTANLINSSDIKSININVDTKKHIENKAKRNYQVPYSINLNGTSTNILSNLSFSNKPWTNYKNLTSQIKSVLKHDRGISEQDLKYAKKAYYTVYFKNGGKRILQLNSKNYTANLVHAKDVKRIEITVKTGTKAKADRYV"}, "B2": {"name": "Eap34 (Eap fragment of domains 3 and 4) (domain or fragment)", "chain": "NYQVPYSINLNGTSTNILSNLSFSNKPWTNYKNLTSQIKSVLKHDRGISEQDLKYAKKAYYTVYFKNGGKRILQLNSKNYTANLVHAKDVKRIEITVKTGTKAKADRYVPYTIAVNGTSTPILSKLKISNKQLISYKYLNDKVKSVLKSERGISDLDLKFAKQAKYTVYFKNGKKQVVNLKSDIFTPNLFSAKDIKKIDIDVKQYTKSKKK"}, "B3": {"name": "Eap12 (Eap fragment of domains 1 and 2) (domain or fragment)", "chain": "GHSNIQIPYTITVNGTSQNILSSLTFNKNQNISYKDIENKVKSVLYFNRGISDIDLRLSKQAEYTVHFKNGTKRVIDLKSGIYTADLINTSDIKAISVNVDTKKQPKDKAKANVQVPYTITVNGTSQNILSNLTFNKNQNISYKDLEGKVKSVLESNRGITDVDLRLSKQAKYTVNFKNGTKKVIDLKSGIYTANLINSSDIKSININVDTKKHIENKAKR"}}, "key": {"[1]": {"molecular_target": "T1, biotinylated C4b (human, biotin through Maleimide-PEG2-Biotin (residue not stated))", "experiment": "AlphaScreen or HTRF"}, "[2]": {"molecular_target": "T1, biotinylated C4b", "experiment": "SPR"}}, "data": [{"binder": "B1", "values": [{"measurement": "Kd", "setting": "[1]", "result": "293 ± 38", "unit": "nM"}]}, {"binder": "B2", "values": [{"measurement": "Kd", "setting": "[1]", "result": "525 ± 65", "unit": "nM"}, {"measurement": "IC50", "setting": "[2]", "result": "~870", "unit": "nM"}]}, {"binder": "B3", "values": [{"measurement": "fold weaker binding than Eap", "setting": "[1]", "result": "~100", "unit": "fold"}]}]}
